Assay results as given in patent US20100291070A1.

Molecular target: PA1698 protein on Pseudomonas aeruginosa PA103 strain cells (Pseudomonas aeruginosa (PA103 strain))
Assay: whole cell ELISA on immobilised P. aeruginosa PA103, 50 ug/well

Q: Which absorbance at 450 nm does the source give for “negative control IgG fraction purified from control rat sera obtained by administering only adjuvant (antibody)” here?
A: The absorbance at 450 nm was 0.084.
